Data reported in publication PMC5057122, “Arabidopsis aldehyde dehydrogenase 10 family members confer salt tolerance through putrescine-derived 4-aminobutyrate (GABA) production” (Scientific Reports, 2016).
Values belong to the molecule of their own block, whether it stands above or below them.

How the values were obtained:
AtALDH10A8 = molecular target: T1, AtALDH10A8 (Arabidopsis thaliana, UniProt Q9S795); experiment: NADH formation at […] nm, substrate-inhibition Michaelis-Menten fit; format: biochemical; details: substrate inhibition (partial); 100 μM NAD+, pH 8.5, room temperature; apparent
T1 construct: gene ALDH10A8
T1 sequence (Q9S795 1-501): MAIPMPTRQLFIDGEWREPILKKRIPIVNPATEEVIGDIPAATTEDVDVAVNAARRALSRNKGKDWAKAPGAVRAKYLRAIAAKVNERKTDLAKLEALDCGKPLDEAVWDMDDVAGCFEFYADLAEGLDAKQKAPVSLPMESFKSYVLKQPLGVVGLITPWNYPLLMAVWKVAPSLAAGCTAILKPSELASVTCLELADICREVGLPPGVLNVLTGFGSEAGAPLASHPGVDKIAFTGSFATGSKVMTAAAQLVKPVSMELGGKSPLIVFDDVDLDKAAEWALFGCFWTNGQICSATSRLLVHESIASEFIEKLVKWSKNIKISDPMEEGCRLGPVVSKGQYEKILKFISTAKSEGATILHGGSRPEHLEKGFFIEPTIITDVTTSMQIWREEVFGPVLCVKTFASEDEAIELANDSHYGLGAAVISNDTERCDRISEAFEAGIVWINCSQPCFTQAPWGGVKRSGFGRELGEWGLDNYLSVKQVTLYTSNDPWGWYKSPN

AtALDH10A9 = molecular target: T2, AtALDH10A9 (Arabidopsis thaliana, UniProt Q9STS1); experiment: as above; format: biochemical; details: 500 μM NAD+, pH 9.5, room temperature, apparent
T2 construct: gene ALDH10A9
T2 sequence (Q9STS1 1-503): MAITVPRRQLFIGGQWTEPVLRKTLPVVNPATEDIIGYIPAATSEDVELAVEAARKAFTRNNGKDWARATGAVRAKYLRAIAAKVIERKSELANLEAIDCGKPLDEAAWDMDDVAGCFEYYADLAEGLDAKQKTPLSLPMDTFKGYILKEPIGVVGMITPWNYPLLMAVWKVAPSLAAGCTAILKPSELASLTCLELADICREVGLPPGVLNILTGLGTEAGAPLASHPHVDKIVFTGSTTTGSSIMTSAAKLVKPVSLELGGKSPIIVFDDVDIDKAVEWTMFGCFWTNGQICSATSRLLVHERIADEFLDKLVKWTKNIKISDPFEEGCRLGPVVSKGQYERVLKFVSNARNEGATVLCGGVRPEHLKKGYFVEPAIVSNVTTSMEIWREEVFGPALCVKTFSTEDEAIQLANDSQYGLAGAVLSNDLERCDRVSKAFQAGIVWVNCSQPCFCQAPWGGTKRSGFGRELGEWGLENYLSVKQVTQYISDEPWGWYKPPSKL

purified protein [1] = substrate: NC(=O)c1ccc[n+]([C@@H]2O[C@H](COP(=O)(O)OP(=O)(O)OC[C@H]3O[C@@H](n4cnc5c(N)ncnc54)[C@H](O)[C@@H]3O)[C@@H](O)[C@H]2O)c1; experiment: purified protein; format: biochemical, Arabidopsis thaliana; details: apparent, varied: cofactor
purified protein [2] = substrate: NCCC=O; experiment: purified protein; format: biochemical, Arabidopsis thaliana; details: apparent
purified protein [3] = substrate: NCCCC=O; experiment: purified protein; format: biochemical, Arabidopsis thaliana; details: apparent
[4] = co-substrate 30 μM APAL (subsaturating), pH 9.5, room temperature
[5] = 500 μM NAD+, pH 9.5, room temperature
[6] = co-substrate 7 μM APAL (subsaturating), pH 8.5, room temperature
[7] = 100 μM NAD+, pH 8.5, room temperature

B1: AtALDH10A9 (Arabidopsis thaliana) (protein)
chain: MAITVPRRQLFIGGQWTEPVLRKTLPVVNPATEDIIGYIPAATSEDVELAVEAARKAFTRNNGKDWARATGAVRAKYLRAIAAKVIERKSELANLEAIDCGKPLDEAAWDMDDVAGCFEYYADLAEGLDAKQKTPLSLPMDTFKGYILKEPIGVVGMITPWNYPLLMAVWKVAPSLAAGCTAILKPSELASLTCLELADICREVGLPPGVLNILTGLGTEAGAPLASHPHVDKIVFTGSTTTGSSIMTSAAKLVKPVSLELGGKSPIIVFDDVDIDKAVEWTMFGCFWTNGQICSATSRLLVHERIADEFLDKLVKWTKNIKISDPFEEGCRLGPVVSKGQYERVLKFVSNARNEGATVLCGGVRPEHLKKGYFVEPAIVSNVTTSMEIWREEVFGPALCVKTFSTEDEAIQLANDSQYGLAGAVLSNDLERCDRVSKAFQAGIVWVNCSQPCFCQAPWGGTKRSGFGRELGEWGLENYLSVKQVTQYISDEPWGWYKPPSKL
Km (purified protein [1]; [4]): 86 ± 16 µM
kcat/Km (purified protein [1]; [4]): 150000 M⁻¹ s⁻¹
Km (purified protein [2]; [5]): 17.3 ± 4.1 µM
kcat/Km (purified protein [2]; [5]): 820000 M⁻¹ s⁻¹
Km (purified protein [3]; [5]): 460 ± 65 µM
kcat/Km (purified protein [3]; [5]): 20000 M⁻¹ s⁻¹

B2: AtALDH10A8 (Arabidopsis thaliana) (protein)
chain: MAIPMPTRQLFIDGEWREPILKKRIPIVNPATEEVIGDIPAATTEDVDVAVNAARRALSRNKGKDWAKAPGAVRAKYLRAIAAKVNERKTDLAKLEALDCGKPLDEAVWDMDDVAGCFEFYADLAEGLDAKQKAPVSLPMESFKSYVLKQPLGVVGLITPWNYPLLMAVWKVAPSLAAGCTAILKPSELASVTCLELADICREVGLPPGVLNVLTGFGSEAGAPLASHPGVDKIAFTGSFATGSKVMTAAAQLVKPVSMELGGKSPLIVFDDVDLDKAAEWALFGCFWTNGQICSATSRLLVHESIASEFIEKLVKWSKNIKISDPMEEGCRLGPVVSKGQYEKILKFISTAKSEGATILHGGSRPEHLEKGFFIEPTIITDVTTSMQIWREEVFGPVLCVKTFASEDEAIELANDSHYGLGAAVISNDTERCDRISEAFEAGIVWINCSQPCFTQAPWGGVKRSGFGRELGEWGLDNYLSVKQVTLYTSNDPWGWYKSPN
Km (purified protein [1]; [6]): 13.2 ± 1.5 µM
kcat/Km (purified protein [1]; [6]): 260000 M⁻¹ s⁻¹
Km (purified protein [2]; [7]): 14.4 ± 2.7 µM
kcat/Km (purified protein [2]; [7]): 1.03e+06 M⁻¹ s⁻¹
Km (purified protein [3]; [7]): 25.1 ± 2.5 µM
kcat/Km (purified protein [3]; [7]): 60000 M⁻¹ s⁻¹

More lines, now with the values ahead:

AtALDH10A8 / Kis (AtALDH10A8): 5.5 ± 0.3 µM
AtALDH10A9 / Kis (AtALDH10A9): 19000 ± 5800 µM
Molecule: NCCC=O [APAL]

AtALDH10A8 / Kis (AtALDH10A8): 55.7 ± 26.0 µM
AtALDH10A9 / Kis (AtALDH10A9): 2600 ± 750 µM
Molecule: NCCCC=O [ABAL]
